Data reported in the Human Domainome abundance scans (Beltran et al. 2025).
± gives the uncertainty stated by the source.

B1: Zinc finger homeobox protein 4, residues 2562 to 2617; numbered along this chain, Q86UP3 (parent)
chain: RLRTTITPEQLEILYEKYLLDSNPTRKMLDHIAREVGLKKRVVQVWFQNTRARERK

Variants of: B1
Experiment: abundance fitness (aPCA) (normalised: wild type 0, dead -1); higher = more abundant; growth selection in yeast, the domain comes from the species named
Conditions: Homo sapiens

Abundance fitness, by site and new letter:
R41: S 0.306 ± 0.067 | V 0.013 ± 0.086 | P 0.246 ± 0.093 | T 0.213 ± 0.088 | N 0.248 ± 0.1 | D 0.001 ± 0.19 | Q 0.476 ± 0.11 | L 0.115 ± 0.08 | E 0.517 ± 0.098 | W -0.102 ± 0.071 | F -0.044 ± 0.089 | H 0.163 ± 0.069 | A 0.257 ± 0.062 | C 0.068 ± 0.075 | Y 0.037 ± 0.079 | G 0.264 ± 0.053 | I -0.038 ± 0.16
K39: I -0.784 ± 0.24 | D 0.11 ± 0.12 | R -0.126 ± 0.06 | V -0.01 ± 0.096 | Y 0.406 ± 0.14 | C 0.142 ± 0.12 | H -0.072 ± 0.085 | G 0.117 ± 0.047 | A 0.234 ± 0.071 | S 0.278 ± 0.096 | N -0.168 ± 0.29 | F -0.862 ± 0.39 | Q 0.032 ± 0.14 | P 0.196 ± 0.12 | L 0.072 ± 0.093 | M -0.405 ± 0.26 | W -0.779 ± 0.17 | T 0.284 ± 0.091
N49: R -0.477 ± 0.077 | V -0.125 ± 0.074 | K -0.489 ± 0.16 | S -0.009 ± 0.072 | A 0.043 ± 0.08 | Q -0.104 ± 0.09 | H -0.423 ± 0.16 | M 0.029 ± 0.13 | L -0.25 ± 0.062 | D -0.043 ± 0.1 | G -0.182 ± 0.059 | C -0.282 ± 0.067 | Y -0.414 ± 0.17 | P -0.73 ± 0.23 | W -0.422 ± 0.063 | I 0.12 ± 0.12 | T -0.102 ± 0.12 | E 0.253 ± 0.1
L38: A -0.508 ± 0.073 | Q -0.755 ± 0.13 | S -0.846 ± 0.091 | G -0.915 ± 0.08 | K -0.254 ± 0.12 | P -0.787 ± 0.12 | I -0.025 ± 0.26 | R -0.818 ± 0.07 | M -0.132 ± 0.072 | T -0.933 ± 0.27 | E -0.488 ± 0.16 | C -0.301 ± 0.12 | D -0.718 ± 0.27 | W -0.884 ± 0.17
F47: L -0.74 ± 0.1 | R -0.969 ± 0.077 | Q -1.18 ± 0.34 | N -0.905 ± 0.22 | G -0.913 ± 0.13 | T -0.789 ± 0.11 | E -0.806 ± 0.07 | H -0.865 ± 0.44 | A -0.983 ± 0.17 | D -0.46 ± 0.36 | Y -0.072 ± 0.11 | I -0.765 ± 0.2 | P -0.885 ± 0.17 | K -1 ± 0.27 | V -0.974 ± 0.1 | W 0.049 ± 0.079
W46: T -0.756 ± 0.27 | H -0.878 ± 0.4 | Q -1.05 ± 0.25 | P -0.802 ± 0.088 | D -0.536 ± 0.16 | K -1.03 ± 0.15 | G -0.752 ± 0.066 | I -0.939 ± 0.15 | C -0.663 ± 0.18 | E -0.549 ± 0.093 | S -0.91 ± 0.11 | V -0.723 ± 0.061 | M -0.815 ± 0.15 | L -0.887 ± 0.14
G37: C -0.006 ± 0.096 | H -0.471 ± 0.2 | V -0.643 ± 0.072 | L -0.71 ± 0.073 | Q -0.051 ± 0.086 | R -0.369 ± 0.081 | Y -0.962 ± 0.24 | S -0.359 ± 0.082 | A -0.258 ± 0.098 | W -1.1 ± 0.28 | M -0.465 ± 0.056 | P -0.812 ± 0.23 | K -0.169 ± 0.06 | I -0.828 ± 0.27 | D -0.065 ± 0.094 | N 0.107 ± 0.14
A52: M -0.268 ± 0.11 | H -0.172 ± 0.071 | V -0.327 ± 0.05 | Q -0.035 ± 0.064 | N 0.189 ± 0.13 | S -0.197 ± 0.099 | K -0.086 ± 0.13 | T -0.372 ± 0.08 | Y -0.781 ± 0.47 | F -0.498 ± 0.28 | P -0.693 ± 0.15 | R -0.321 ± 0.071 | C -0.702 ± 0.24 | L -0.226 ± 0.069 | W -0.347 ± 0.078 | G -0.096 ± 0.054 | D 0.384 ± 0.056 | E 0.283 ± 0.077
R55: A 0.107 ± 0.083 | H -0.086 ± 0.16 | N 0.297 ± 0.15 | D 0.262 ± 0.082 | P 0.001 ± 0.11 | S 0.09 ± 0.052 | M 0.128 ± 0.097 | C 0.063 ± 0.12 | Q -0.078 ± 0.26 | K -0.035 ± 0.22 | I 0.053 ± 0.1 | G 0.11 ± 0.059 | F -0.23 ± 0.15 | L 0.128 ± 0.07
V43: E -0.925 ± 0.12 | P -0.862 ± 0.24 | N -0.829 ± 0.4 | S -0.723 ± 0.16 | G -0.89 ± 0.085 | A -0.462 ± 0.063 | D -0.778 ± 0.22 | R -0.974 ± 0.072 | W -0.78 ± 0.089 | I -0.147 ± 0.084 | K -0.965 ± 0.27 | C -0.505 ± 0.12 | T -0.553 ± 0.079 | F -0.861 ± 0.28 | L -0.306 ± 0.083
T50: F -0.069 ± 0.096 | L -0.137 ± 0.071 | S 0.06 ± 0.083 | Y -0.107 ± 0.21 | N -0.127 ± 0.1 | G -0.367 ± 0.064 | E 0.265 ± 0.11
